Laboratory results as given in article PMC3072391.
Where two headings read alike, the source gives them in different places.

How the values were obtained:
[1] = molecular target: NS5BΔ21-5a fused to cyan or citrine fluorescent protein (hepatitis C virus genotype 5a (patient isolate)); experiment: FRET or BRET; in vitro; purified NS5BΔ21-cyan and NS5BΔ21-citrine of the same genotype mixed equimolar, 50 nM each; 10 mM NaCl and 4.5 mM Mg(CH3COO)2; excitation 432 nm, FRET ratio = emission 530 nm/478 nm, normalised against NS5BΔ21-1b; twelve independent experiments
[2] = molecular target: NS5BΔ21-5a fused to cyan or citrine fluorescent protein (hepatitis C virus genotype 5a (patient isolate)); experiment: as above; remark: listed apart in the source

“NS5BΔ21-5a fused to cyan or citrine fluorescent protein (enzyme)” showed an FRET ratio relative to NS5BΔ21-1b [1] of under 50% and an FRET ratio relative to NS5BΔ21-1b [2] of 40%.
